Measured values: patent US20130303393A1

Tests used:
NlpA-ZZ fusion protein [1] = test: flow cytometry of NlpA-ZZ spheroplasts labeled with 5 nM FITC-conjugated Human IgG; residual fluorescence at Time 180 min
NlpA-ZZ fusion protein [2] = test: flow cytometry of NlpA-ZZ spheroplasts labeled with 5 nM FITC-conjugated Human IgG; residual fluorescence at Time 20 min
NlpA-ZZ fusion protein [3] = test: flow cytometry of NlpA-ZZ spheroplasts labeled with 5 nM FITC-conjugated Human IgG; residual fluorescence at Time 240 min
NlpA-ZZ fusion protein [4] = test: flow cytometry of NlpA-ZZ spheroplasts labeled with 5 nM FITC-conjugated Human IgG; residual fluorescence at Time 120 min
NlpA-ZZ fusion protein [5] = test: flow cytometry of NlpA-ZZ spheroplasts labeled with 5 nM FITC-conjugated Human IgG; residual fluorescence at Time 4320 min
NlpA-ZZ fusion protein [6] = test: flow cytometry of NlpA-ZZ spheroplasts labeled with 5 nM FITC-conjugated Human IgG; residual fluorescence at Time 1440 min
NlpA-ZZ fusion protein [7] = test: flow cytometry of NlpA-ZZ spheroplasts labeled with 5 nM FITC-conjugated Human IgG; residual fluorescence at Time 60 min
NlpA-ZZ fusion protein [8] = test: flow cytometry of NlpA-ZZ spheroplasts labeled with 5 nM FITC-conjugated Human IgG; residual fluorescence at Time 10 min
NlpA-ZZ fusion protein [9] = test: flow cytometry of NlpA-ZZ spheroplasts labeled with 5 nM FITC-conjugated Human IgG; residual fluorescence at Time 0 min
NlpA-ZZ fusion protein [10] = test: flow cytometry of spheroplasts expressing NlpA-ZZ, labeled with 50 nM FITC-conjugated Human IgG
NlpA-ZZ fusion protein [11] = test: flow cytometry of NlpA-ZZ spheroplasts labeled with 5 nM FITC-conjugated Human IgG; residual fluorescence at Time 30 min

commercial Human IgG antibodies (FITC-conjugated) (antibody)
M (FL1-Height) (NlpA-ZZ fusion protein [1]): 148
M (FL1-Height) (NlpA-ZZ fusion protein [2]): 143
M (FL1-Height) (NlpA-ZZ fusion protein [3]): 142
M (FL1-Height) (NlpA-ZZ fusion protein [4]): 133
M (FL1-Height) (NlpA-ZZ fusion protein [5]): 154
M (FL1-Height) (NlpA-ZZ fusion protein [6]): 146
M (FL1-Height) (NlpA-ZZ fusion protein [7]): 136
M (FL1-Height) (NlpA-80R(scFv)): 3
M (FL1-Height) (NlpA-ZZ fusion protein [8]): 150
M (FL1-Height) (NlpA-ZZ fusion protein [9]): 153
M (FL1-Height) (NlpA-ZZ fusion protein [10]): 2760
M (FL1-Height) (NlpA-ZZ fusion protein [11]): 147
